Test results: article doi:10.1101/2021.10.14.464379
Where “and” joins values, the source holds several entries; their conditions need not be identical. Equal entries are not always repeated.

Columns and labels:
[1] = target: ZmBAM7-S (short form of corn BAM7), full-length recombinant protein (Zea mays); experiment: SEC
[2] = target: ZmBAM7-S (short form of corn BAM7), full-length recombinant protein (Zea mays); experiment: SAXS

- stoichiometry N [1]: 4 subunits and 6 subunits
- stoichiometry N [2]: 4
Substance: ZmBAM7-S (short form of corn BAM7), full-length recombinant protein (enzyme)
